{"source": "paper PMC6145892", "about": "“Roquin targets mRNAs in a 3′-UTR-specific manner by different modes of regulation”", "key": {"[1]": {"target": "T1, Roquin-1 zinc finger (Znf, CCCH) (UniProt Q4VGL6 411-454)", "T1 chain": "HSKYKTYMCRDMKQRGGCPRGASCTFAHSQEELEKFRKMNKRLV", "assay": "ITC; Zn2+; n=0.48; ITC at room temperature, RNA titrated into 10-40 uM protein; buffer 20 mM Tris pH 7.0, 150 mM NaCl, 25 uM ZnCl2, 2 mM TCEP, 0.02% azide (stated for Znf); NMR HSQC 50 uM protein, RT, 10% D2O", "settings": "protein: recombinant; tags: His6-GST removed by TEV; chain copies: 2; single-stranded"}, "Roquin-1 ROQ domain [2]": {"target": "T2, Roquin-1 ROQ domain (UniProt Q4VGL6 171-326)", "T2 sequence": "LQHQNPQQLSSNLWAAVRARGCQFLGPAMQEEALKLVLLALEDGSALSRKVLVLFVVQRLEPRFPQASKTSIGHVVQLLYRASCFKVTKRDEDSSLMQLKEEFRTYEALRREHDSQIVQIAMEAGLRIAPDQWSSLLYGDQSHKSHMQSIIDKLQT", "assay": "ITC; complete loss of binding; ITC at room temperature, RNA titrated into 10-40 uM protein; buffer 20 mM Tris pH 7.0, 150 mM NaCl, 25 uM ZnCl2, 2 mM TCEP, 0.02% azide (stated for Znf); NMR HSQC 50 uM protein, RT, 10% D2O", "settings": "protein: recombinant; tags: His6-thioredoxin, TEV-removable; single-stranded"}, "[3]": {"target": "T1, Roquin-1 zinc finger (Znf, CCCH)", "assay": "ITC; Zn2+; n=0.45; ITC at room temperature, RNA titrated into 10-40 uM protein; buffer 20 mM Tris pH 7.0, 150 mM NaCl, 25 uM ZnCl2, 2 mM TCEP, 0.02% azide (stated for Znf); NMR HSQC 50 uM protein, RT, 10% D2O", "settings": "protein: recombinant; tags: His6-GST removed by TEV; chain copies: 2; single-stranded"}, "[4]": {"target": "T1, Roquin-1 zinc finger (Znf, CCCH)", "assay": "ITC; Zn2+; n=1.0; ITC at room temperature, RNA titrated into 10-40 uM protein; buffer 20 mM Tris pH 7.0, 150 mM NaCl, 25 uM ZnCl2, 2 mM TCEP, 0.02% azide (stated for Znf); NMR HSQC 50 uM protein, RT, 10% D2O", "settings": "protein: recombinant; tags: His6-GST removed by TEV; chain copies: 2; single-stranded"}, "[5]": {"target": "T1, Roquin-1 zinc finger (Znf, CCCH)", "assay": "ITC; Zn2+; ITC at room temperature, RNA titrated into 10-40 uM protein; buffer 20 mM Tris pH 7.0, 150 mM NaCl, 25 uM ZnCl2, 2 mM TCEP, 0.02% azide (stated for Znf); NMR HSQC 50 uM protein, RT, 10% D2O", "settings": "protein: recombinant; tags: His6-GST removed by TEV; chain copies: 2; single-stranded"}, "Roquin-1 ROQ domain [6]": {"target": "T2, Roquin-1 ROQ domain", "assay": "ITC; n=0.81; ITC at room temperature, RNA titrated into 10-40 uM protein; buffer 20 mM Tris pH 7.0, 150 mM NaCl, 25 uM ZnCl2, 2 mM TCEP, 0.02% azide (stated for Znf); NMR HSQC 50 uM protein, RT, 10% D2O", "settings": "protein: recombinant; tags: His6-thioredoxin, TEV-removable; single-stranded, no imino signals"}, "[7]": {"target": "T1, Roquin-1 zinc finger (Znf, CCCH)", "assay": "ITC; Zn2+; n=0.5; ITC at room temperature, RNA titrated into 10-40 uM protein; buffer 20 mM Tris pH 7.0, 150 mM NaCl, 25 uM ZnCl2, 2 mM TCEP, 0.02% azide (stated for Znf); NMR HSQC 50 uM protein, RT, 10% D2O", "settings": "protein: recombinant; tags: His6-GST removed by TEV; chain copies: 2; single-stranded, no imino signals"}}, "data": [{"binder": "UUUUAAGCGUAUUUU (ssRNA)", "note": "[LBE mutant (GCG)]", "values": [{"measurement": "Kd", "setting": "[1]", "value": "21.4 ± 3.6", "unit": "µM"}, {"measurement": "binding result", "setting": "Roquin-1 ROQ domain [2]", "value": "no binding"}]}, {"binder": "GUGUGUGUGU (ssRNA)", "note": "[(GU)5 10-mer]", "values": [{"measurement": "Kd", "setting": "[3]", "value": "52.5 ± 7.2", "unit": "µM"}]}, {"binder": "UUUUAACAU (ssRNA)", "note": "[LBE 5'-half 9-mer]", "values": [{"measurement": "Kd", "setting": "[4]", "value": "35.6 ± 6.8", "unit": "µM"}]}, {"binder": "CACACACACA (ssRNA)", "note": "[(CA)5 10-mer]", "values": [{"measurement": "binding result", "setting": "[5]", "value": "no binding"}]}, {"binder": "UUUUAACAUUAUUUU (ssRNA)", "note": "[LBE (Nfkbiz 3'-UTR 15-mer)]", "values": [{"measurement": "Kd", "setting": "Roquin-1 ROQ domain [6]", "value": "3.6 ± 0.4", "unit": "µM"}, {"measurement": "Kd", "setting": "[7]", "value": "26.3 ± 3.4", "unit": "µM"}]}]}
